# Assay results published in patent US8846623B2, “Cancer-targeting peptides and uses thereof in cancer treatment and diagnosis” (Academia Sinica, priority 2010, dated 2014).
# Square brackets hold non-standard residues; d marks the D form. Ends that are not written are not given here. Peptide text beside a SMILES is read from it.
# Experiments:
# [1] = biological target: full-length recombinant GRP78 (Homo sapiens, UniProt P11021); assay: Biacore binding assay of peptides; details: for Binding index: peptide at 50 μM, difference of RUs divided by molecular weight, normalized to the L-peptide; for binding responses in Biacore / Binding to GRP78 compared to the L-peptide: in words; for Binding to GRP78 compared to the L-peptide: Biacore
# Experimental: 26 candidate peptides designed by the method described in Example 1 (listed in Table 6 below) above and peptide CdL, a negative control, were synthesized by conventional chemical synthesis and subjected to the surface-plasmon-resonance based method described below to examine the binding activities of the peptides to human GRP78.
# The chip NTA and HBS-P buffer were obtained from GE Healthcare. Sensor chip NTA was prepared by combining Ni-ion chelation and covalent immobilization of N-His tagged GRP78 via amine-coupling with nitrilotriacetic acid on chip NTA (FIG. 6). To immobilize GRP78 protein on sensor chip for peptide-binding assay using Biacore, the methods based on Ni-ion chelation and amine coupling reaction were combined. Sensor chip NTA was prepared by chelation followed by covalent immobilization of N-His-tagged GRP78 via amine-coupling at the nitrilotriacetic acid group on chip NTA. The sensor chip NTA, HBS-P buffer and amine coupling kits were all obtained from GE Healthcare. First, the activation of chip surface using EDC and NHS reagents for amine coupling were according to the standard procedure from manufacturer's instruction. Additionally, one-minute pulse of NiCl2 solution (500 μM) was used to attract His-tagged GRP78 to the surface of sensor chip and formed covalent bond subsequently in the condition of HBS-P buffer (pH 7.4). The resulting differences of RU were about 5,000-6,000 RU. After de-activation by ethanolamine and washed with EDTA (3 mM), the prepared sensor chip was then applied to Biacore X for binding assay. The HBS-P buffer containing 1 mM Gly was used as running buffer for binding assay. Solution of 20 mM sodium hydroxide dissolved in running buffer was used to regenerate the chip surface by one-minute pulse.
# The sensor chip thus prepared was applied to Biacore X for determining the binding between the peptides and GRP78. The HBS-P buffer containing 1 mM Gly was used as a running buffer. A solution of 20 mM sodium hydroxide dissolved in the running buffer was used to regenerate chip surface by 1-minute pulses.
# The binding of various peptides to GRP78 is also shown as a binding index in Table 6. The binding index represents the difference of resonance units (RUs) divided by the molecular weight of each peptide and was normalized by comparison to the L-peptide.
# TW01 cells = assay: Flow cytometry binding of FITC-labeled peptide, TW01; assay type: cell-based; details: Nasopharyngeal
# Experimental: (§1) Cells were grown to 80% confluence and harvested with 5 mmol/L EDTA in PBS. Breast cancer specimens were obtained from patients who underwent initial surgery at Tri-Service General Hospital (Taipei, Taiwan). The clinical breast cancer specimens were sliced to fragments of 1 mm2 in size and subjected to enzymatic digestion by collagenase (1,000 U/mL), hyaluronidase (300 U/mL), and DNase I (100 μg/mL) at 37° C. for 2 hours. Primary breast tumor cells were collected after filtration through a 100 μm cell strainer (BD Biosciences) and re-suspended. For transplantation, tumor cells mixed with normal human breast fibroblasts and Matrigel were subcutaneously injected into mammary fat pads of female NOD/SCID mice received a sub-lethal dose of gamma irradiation in advance. After transplantation, cells of xenografted tumors were isolated and inoculated in NOD/SCID mice for serial passages. The cancer cell lines, xenograft cells, and primary breast tumor cells were re-suspended in a FACS buffer (PBS with 2% fetal bovine serum) and incubated at room temperature for 30 min with FITC-conjugated various peptides. To determine breast cancer stem cell (BCSCs) and non-breast cancer stem cell (non-BCSC) populations from xenografts, the cells were stained with a mixture of anti-H2Kd-biotin followed by streptavidin-PER-CP, anti-CD24-PE, anti-CD44-APC and FITC-conjugated various peptides. The primary breast tumor cells were stained with anti-CD45-PerCP-Cy5.5 antibodies, instead of H2Kd staining. The stained cells were then subjected to FACS analysis.
# MDA-MB-231 cells = assay: Flow cytometry binding of FITC-labeled peptide, MDA-MB-231; assay type: cell-based; details: Breast
# Experimental: as §1
# [2] = system: human primary breast cancer BC0145 and BC0244 engrafted in NOD/SCID mice; assay: Flow cytometry binding of FITC-labeled peptides to xenograft cells (BCSC-enriched and non-BCSC); assay type: cell-based; details: for Binding capacities in vitro compared with L-peptide: both BCSCs and non-BCSCs
# Experimental: To evaluate the in vitro binding abilities of cancer-targeting peptides described herein, the FITC-labeled L-peptide, P-6, P-12, P-13, and P-16 were tested for their binding activities to cancer cells, primary breast cancer engrafted in NOD/SCID mice, and clinical breast cancer specimens by a flow cytometric analysis as described below.
# as §1
# The binding capacities of the L-peptide and the P-6, P-12, P-13, and P-16 peptides to two xenograft samples from NOD-SCID mice transplanted with human primary breast cancer cell lines BC0145 and BC0244 were evaluated with special focus on their binding to the BCSC subpopulation enriched from the breast cancer cells. Breast cancer cells harvested from engrafted tumors were stained with H2Kd to gate out mouse cells, and stained with anti-CD24 and anti-CD44 antibodies to distinguish BCSC-enriched cells (CD24^−CD44^+) from non-BCSC cells. These cells were co-stained with one of the above-noted peptides, which was FITC-labeled and subjected to flow cytometric analysis. […] The binding abilities of these peptides to clinical breast specimens were similar to those to xenograft samples. […] FIG. 7, panel d.
# GRP78 = GRP78 (Homo sapiens, UniProt P11021); assay: Dissociation constant of L-peptide binding to GRP78; details: dose-dependent binding to GRP78
# Sequence of GRP78 (P11021 19-654): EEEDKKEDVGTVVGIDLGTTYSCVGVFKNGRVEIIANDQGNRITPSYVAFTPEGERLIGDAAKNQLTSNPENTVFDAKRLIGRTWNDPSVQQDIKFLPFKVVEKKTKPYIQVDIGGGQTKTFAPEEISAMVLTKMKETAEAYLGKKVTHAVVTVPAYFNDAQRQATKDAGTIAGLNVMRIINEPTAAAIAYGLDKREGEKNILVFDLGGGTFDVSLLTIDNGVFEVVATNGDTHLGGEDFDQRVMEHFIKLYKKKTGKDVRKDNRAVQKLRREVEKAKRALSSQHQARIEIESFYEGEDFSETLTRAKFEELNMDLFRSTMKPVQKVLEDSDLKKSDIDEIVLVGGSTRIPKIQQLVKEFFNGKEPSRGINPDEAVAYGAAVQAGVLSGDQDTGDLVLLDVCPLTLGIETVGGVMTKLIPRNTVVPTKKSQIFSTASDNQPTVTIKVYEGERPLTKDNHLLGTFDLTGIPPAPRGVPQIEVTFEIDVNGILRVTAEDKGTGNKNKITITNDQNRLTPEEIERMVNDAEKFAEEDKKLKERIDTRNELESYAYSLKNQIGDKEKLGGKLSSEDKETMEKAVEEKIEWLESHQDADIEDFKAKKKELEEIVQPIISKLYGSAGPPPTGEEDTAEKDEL
# Sequence of full-length recombinant GRP78 (P11021 19-654): as above
Compound,Binding index [1],also measured
RLLDTNRPDLPY [PA-3],<0.2,–
RLLDTNRPKLVY [P-2],<0.2,–
RLLDTNRPELPY [PA-2],<0.2,–
RLLDTNRPYLWY [PB-2],3,binding responses in Biacore [1]: significant binding responses
RLLDTNRPMLMY [P-5],<0.2,–
RLLDTNRPQLPY [PA-5],0.3,–
RLLDTNRPWLPY [PA-1],0.35,Binding to GRP78 compared to the L-peptide [1]: significantly decreased the binding
RLLDTNRPHLKY [P-15],<0.2,–
RLLDTNRPFLPY [P-6],1.1~1.52,"Binding to GRP78 compared to the L-peptide [1]: bound to GRP78 better than the L-peptide; binding responses in Biacore [1]: significant binding responses; Binding ability (TW01 cells): bound; Binding ability (MDA-MB-231 cells): bound; binding capacity to BCSC-enriched cells ([2]; FITC-labeled peptide, BCSC-enriched cells isolated from the BC0145 xenograft): equivalent to P-12; Binding capacities in vitro compared with L-peptide ([2]; FITC-labeled peptides): greater binding capacities in vitro than L-peptide"
RLLDTNRPLLGY [P-11],0.77,–
RLLDTNRPFLFY [P-13],1.4~3.5,"Binding to GRP78 compared to the L-peptide [1]: bound to GRP78 better than the L-peptide; binding responses in Biacore [1]: significant binding responses; Binding ability (TW01 cells): bound; Binding ability (MDA-MB-231 cells): bound; Staining strength (order of binding) ([2]; FITC-labeled peptides, BCSC-enriched and non-BCSC cells of BC0145 and BC0244 xenografts): stained most strongly; Binding capacities in vitro compared with L-peptide ([2]; FITC-labeled peptides): greater binding capacities in vitro than L-peptide"
RLLDTNRPKLRY [P-16],<0.2,–
RLLDTNRPKLFY [P-4],<0.2,–
RLLDTNRPRLEY [P-17],<0.2,–
"RLLDTNRPL(d-L)PY (RLLDTNRPL[dL]PY) [CdL, negative control peptide, reference compound]",<0.2,–
RLLDTNRPPLCY [P-9],<0.2,–
RLLDTNRPHLPY [PA-6],0.47,–
RLLDTNRPQLVY [P-3],<0.2,–
RLLDTNRPNLPY [PA-4],0.31,–
RLLDTNRPSLFY [P-7],<0.2,–
RLLDTNRPYLKY [P-1],<0.2,–
RLLDTNRPLLLY [P-14],0.21,–
RLLDTNRPFLWY [PB-1],1.6,binding responses in Biacore [1]: significant binding responses
RLLDTNRPMLKY [P-8],<0.2,–
RLLDTNRPHLWY [P-12],1.2~3.5,Binding to GRP78 compared to the L-peptide [1]: bound to GRP78 better than the L-peptide; binding responses in Biacore [1]: significant binding responses; Binding ability (TW01 cells): bound; Binding ability (MDA-MB-231 cells): bound; Binding capacities in vitro compared with L-peptide ([2]; FITC-labeled peptides): greater binding capacities in vitro than L-peptide
RLLDTNRPFLKY [P-10],<0.2,–
CC(C)C[C@H](NC(=O)[C@H](CC(C)C)NC(=O)[C@@H](N)CCCNC(=N)N)C(=O)N[C@@H](CC(=O)O)C(=O)N[C@H](C(=O)N[C@@H](CC(N)=O)C(=O)N[C@@H](CCCNC(=N)N)C(=O)N1CCC[C@H]1C(=O)N[C@@H](CC(C)C)C(=O)N[C@@H](CC(C)C)C(=O)N1CCC[C@H]1C(=O)N[C@@H](Cc1ccc(O)cc1)C(=O)O)[C@@H](C)O [L-peptide] (H-RLLDTNRPLLPY-OH),–,Kd (GRP78): 1 to 10 µM
"RLLDTNRPLLPY(CONH2) (RLLDTNRPLLPY-NH2) [PB-3, L-peptide modified with the amidation (CONH2)]",1.15,Binding to GRP78 compared to the L-peptide [1]: did not significantly affect the binding affinity; binding responses in Biacore [1]: significant binding responses
